In doi:10.1101/382655:
Changes are numbered by the printed parent chain. Where two headings read alike, the source gives them in different places.

B1: H1_CTloop (design I) (dsDNA)
DNA 1: TGGCCATGCAGTCACTATGAATCAACTACTTAGACC
DNA 2: TGGTCTAAGTAGTTGATTCATTCTGACTGCATGGCC
B2: H1 (design I) (dsDNA)
DNA 1: B1 DNA 1
DNA 2: B1 DNA 2 with T22A, C23G
B3: H1 (design II) (dsDNA)
DNA 1: GGCCATGCAGTCACTATGAATCAACTACTTAGACC
DNA 2: GGTCTAAGTAGTTGATTCATAGTGACTGCATGGCC
modifications: 3' phosphate link on bottom strand (to dye)
B4: H' (design I) (dsDNA)
DNA 1: TGGCCAAAAAAGCATTGCTTATCAATTTGTTGCACC
DNA 2: TGGTGCAACAAATTGATAAGCAATGCTTTTTTGGCC
B5: H'44A (design I) (dsDNA)
DNA 1: B4 DNA 1 with T31A
DNA 2: B4 DNA 2 with A7T
B6: H' (design II) (dsDNA)
DNA 1: GGCCAAAAAAGCATTGCTTATCAATTTGTTGCACC
DNA 2: GGTGCAACAAATTGATAAGCAATGCTTTTTTGGCC
modifications: 3' phosphate link on bottom strand (to dye)

Experiments:
[1] = target: T1, Integration host factor (IHF) (UniProt P0A6X7;P0A6Y1 2-99;1-94); assay: equilibrium fluorescence titration
T1 sequence (P0A6X7 2-99, chain 1 of 2): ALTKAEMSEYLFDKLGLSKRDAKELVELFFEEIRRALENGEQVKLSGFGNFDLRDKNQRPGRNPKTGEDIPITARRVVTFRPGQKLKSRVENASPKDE
T1 sequence (P0A6Y1 whole entry, chain 2 of 2): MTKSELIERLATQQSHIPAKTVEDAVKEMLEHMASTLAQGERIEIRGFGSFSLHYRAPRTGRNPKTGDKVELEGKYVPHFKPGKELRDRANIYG

[2] = target: T1, Integration host factor (IHF); assay: fluorescence lifetime FRET
[3] = target: T1, Integration host factor (IHF); assay: equilibrium fluorescence titration, extrapolated
[4] = target: T1, Integration host factor (IHF); assay: fluorescence lifetime FRET; remark: listed apart in the source

| Binder | Kd [1] | further results |
| --- | --- | --- |
| B1 | 0.016 ± 0.003 µM | – |
| B2 | – | binding result [2]: binds |
| B3 | 1.99 ± 0.05 µM | – |
| B4 | 1.9 ± 0.1 µM | Kd [3]: 23 pM |
| B5 | – | binding result [4]: binds |
| B6 | 1.5 ± 0.2 µM | – |
